From the supplement of paper PMC10126150
± gives the standard deviation of the averaged measurements.

Tested on: ATP
Assay: switch fluorescence ratio, 500 uM ATP over buffer (Cy3 cluster intensity, sum of 5 cycles each) (fold (ratio)); higher = stronger signal-on switching upon ATP binding; sequences stand for … in TCGTCGGCAGCGTCAGATGTGTATAAGAGACAGTTTTTTTTTTTTTTTTTTTTTTTTT…TC
Conditions: aptamer strand: ATP DNA aptamer (quencher-CACCTGGGGGAGTATTGCGGAGGAAGG + anchor), 100 nM annealed; ATP concentration: 500 uM
Outline: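 Between each of five buffer/ATP cycles, the flow-cell was stripped with NaOH and re-annealed. Each cycle imaged Cy3-labelled switching-strand clusters, annealed to 100 nM quencher-labelled ATP aptamer on a modified Illumina MiSeq flow-cell, first in selection buffer and then after 15 min with 500 uM ATP at 22 °C. The fluorescence ratio is summed target-cycle over summed buffer-cycle Cy3 intensity per cluster, averaged per switch-domain sequence, with clusters outside 100-1000 RFU excluded.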
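Further: ATP exposure 15 min at 22 °C before imaging.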

Sequence | switch fluorescence ratio
ATTCTTTACG | 1.03 ± 0.015
ATTCTTTGGG | 1.01 ± 0.02
ATTCTTTTTT | 0.997 ± 0.024
ATTGAACAT | 0.984 ± 0.015
ATTGAACGTT | 0.979 ± 0.015
ATTGAAGCGG | 1.01 ± 0.05
ATTGAATGTG | 0.973 ± 0.013
ATTGAATTTG | 0.9999 ± 0.0013
ATTGAGAAGT | 0.996 ± 0.031
ATTGAGAATC | 0.962 ± 0.035
ATTGAGATCG | 1.01 ± 0.033
ATTGAGGGAG | 1 ± 0.024
ATTGAGTGTT | 0.987 ± 0.034
ATTGATGACT | 1.04 ± 0.027
ATTGATGAGG | 0.972 ± 0.012
ATTGATGGGG | 0.976 ± 0.042
ATTGATTGTA | 0.995 ± 0.035
ATTGCATAGG | 0.9951 ± 0.0021
ATTGCCGGAG | 0.999 ± 0.037
ATTGCGAGGC | 1.04 ± 0.029
ATTGCGGCTA | 1.03 ± 0.033
ATTGCGTGTA | 1.023 ± 0.0085
ATTGCGTTGG | 0.996 ± 0.013
ATTGCGTTTG | 1.01 ± 0.026
ATTGCTAGGG | 1.03 ± 0.023

Sequence | switch fluorescence ratio
ATTGCTGCGA | 1.006 ± 0.0075
ATTGCTTACG | 1.14 ± 0.19
ATTGGAATTA | 0.985 ± 0.047
ATTGGAGGCA | 1.03 ± 0.03
ATTGGAGTAG | 1.01 ± 0.014
ATTGGATATT | 1.02 ± 0.015
ATTGGCGCGG | 0.969 ± 0.012
ATTGGCGTTT | 0.996 ± 0.049
ATTGGGAAGA | 1.02 ± 0.028
ATTGGGAATC | 0.9923 ± 0.0027
ATTGGGAGGA | 1 ± 0.014
ATTGGGAGGG | 1.022 ± 0.0026
ATTGGGGAGG | 0.974 ± 0.012
ATTGGGGATG | 0.9819 ± 0.0097
ATTGGGGGAG | 0.987 ± 0.033
ATTGGGGGGC | 1.01 ± 0.036
ATTGGGGTAT | 1 ± 0.03
ATTGGGTTGT | 0.973 ± 0.015
ATTGGGTTTT | 0.999 ± 0.022
ATTGGTAAGG | 0.995 ± 0.025
ATTGGTATAT | 1.007 ± 0.0068
ATTGGTATCT | 0.979 ± 0.014
ATTGGTCATA | 1 ± 0.028
ATTGGTGGTT | 1 ± 0.074
ATTGGTTACG | 1.01 ± 0.028

Sequence | switch fluorescence ratio
ATTGGTTTGG | 1.032 ± 0.01
ATTGTAGGGT | 0.972 ± 0.021
ATTGTATTG | 0.986 ± 0.014
ATTGTATTGT | 0.987 ± 0.03
ATTGTCGG | 0.972 ± 0.028
ATTGTGCGGG | 1.01 ± 0.036
ATTGTGCTGG | 0.983 ± 0.018
ATTGTGGAGA | 1.03 ± 0.032
ATTGTGGGAC | 0.996 ± 0.077
ATTGTGGGCG | 0.952 ± 0.017
ATTGTGGGCT | 0.967 ± 0.063
ATTGTTACTG | 1.06 ± 0.021
ATTGTTACTT | 1.02 ± 0.019
ATTGTTAGGG | 0.985 ± 0.019
ATTGTTATTT | 1.02 ± 0.018
ATTGTTGTAG | 0.985 ± 0.00069
ATTGTTTATT | 0.998 ± 0.012
ATTGTTTGAG | 0.982 ± 0.0032
ATTGTTTGTT | 1.01 ± 0.016
ATTGTTTTGG | 0.981 ± 0.028
ATTGTTTTTC | 1.04 ± 0.073
ATTTAAAGAT | 0.987 ± 0.049
ATTTAAAGGT | 0.964 ± 0.018
ATTTAAGAGA | 1.01 ± 0.051
ATTTAAGAGG | 1 ± 0.041

Sequence | switch fluorescence ratio
ATTTAAGCTC | 0.987 ± 0.024
ATTTAAGTGT | 1 ± 0.021
ATTTAATTAA | 1.02 ± 0.056
ATTTAATTGT | 0.986 ± 0.053
ATTTACATAT | 1.03 ± 0.015
ATTTACGGGG | 1.04 ± 0.0031
ATTTACTCGT | 1.014 ± 0.0017
ATTTAGAATG | 1.02 ± 0.011
ATTTAGGTTA | 0.989 ± 0.021
ATTTAGTTCG | 0.9606 ± 0.0073
ATTTATAATT | 0.992 ± 0.028
ATTTATAGGG | 0.982 ± 0.014
ATTTATCGGG | 1 ± 0.027
ATTTATGGAT | 1 ± 0.023
ATTTATGGGG | 1 ± 0.032
ATTTATTTTT | 1.011 ± 0.002
ATTTCAAGTT | 0.966 ± 0.011
ATTTCCGTTT | 0.984 ± 0.013
ATTTCGGTGG | 1.06 ± 0.044
ATTTCGTCGA | 0.991 ± 0.019
ATTTCTAGAA | 1.02 ± 0.015
ATTTCTAGGG | 1.027 ± 0.0041
ATTTCTCGGT | 1.07 ± 0.066
ATTTCTTGGT | 0.9751 ± 0.0083
ATTTGAATTG | 1.02 ± 0.03

Sequence | switch fluorescence ratio
ATTTGAGATT | 1 ± 0.018
ATTTGAGCTA | 1.04 ± 0.023
ATTTGAGGGA | 1.13 ± 0.2
ATTTGATCGA | 1.02 ± 0.075
ATTTGATTCG | 1.008 ± 0.0087
ATTTGCAGGA | 0.992 ± 0.046
ATTTGCAGTG | 0.994 ± 0.021
ATTTGCTGTG | 0.9916 ± 0.0062
ATTTGGACGA | 1 ± 0.03
ATTTGGCATC | 1.41 ± 0.47
ATTTGGCGCG | 0.964 ± 0.024
ATTTGGCGTG | 1.01 ± 0.099
ATTTGGGCAT | 0.994 ± 0.029
ATTTGGGGAC | 0.98 ± 0.016
ATTTGGGGAT | 1.02 ± 0.03
ATTTGGGTAG | 1.01 ± 0.062
ATTTGGTGAC | 0.9987 ± 0.0042
ATTTGGTGCA | 1.01 ± 0.056
ATTTGGTTA | 0.993 ± 0.035
ATTTGTAAGT | 0.9587 ± 0.006
ATTTGTTGCA | 1.0298 ± 0.00091
ATTTGTTGCG | 0.999 ± 0.017
ATTTTAAGCG | 1.01 ± 0.014
ATTTTAAGTC | 0.987 ± 0.041
ATTTTACGAT | 0.999 ± 0.049

Sequence | switch fluorescence ratio
ATTTTAGTGT | 0.968 ± 0.029
ATTTTATAAA | 0.986 ± 0.026
ATTTTATTTG | 1.06 ± 0.056
ATTTTCATTG | 0.9749 ± 0.0087
ATTTTCCAGG | 1.49 ± 0.26
ATTTTCTTTG | 0.9958 ± 0.0089
ATTTTGCAAT | 1.27 ± 0.037
ATTTTGCGAT | 1.01 ± 0.015
ATTTTGCGTG | 0.98 ± 0.029
ATTTTGCTAA | 0.996 ± 0.016
ATTTTGCTCT | 1.02 ± 0.026
ATTTTGGCGA | 1.02 ± 0.029
ATTTTGGTTG | 1.01 ± 0.035
ATTTTGTCGC | 0.992 ± 0.016
ATTTTGTGTT | 0.988 ± 0.022
ATTTTTAAGA | 1 ± 0.012
ATTTTTATCC | 1.022 ± 0.0068
ATTTTTGAGC | 1.04 ± 0.048
ATTTTTGAGT | 1.02 ± 0.025
ATTTTTGTGG | 0.974 ± 0.011
ATTTTTGTTA | 0.986 ± 0.054
ATTTTTTCAG | 1.03 ± 0.014
ATTTTTTCCT | 1.03 ± 0.022
ATTTTTTCGC | 0.995 ± 0.015
ATTTTTTGAA | 0.997 ± 0.019

Sequence | switch fluorescence ratio
ATTTTTTGG | 0.997 ± 0.017
ATTTTTTTAT | 0.995 ± 0.017
CAAAAAACGA | 0.999 ± 0.066
CAAAAATTAT | 1.03 ± 0.044
CAAAACTTGC | 1.18 ± 0.032
CAAAAGGCAG | 0.984 ± 0.048
CAAAAGGGAT | 1.03 ± 0.017
CAAAAGGTTA | 0.996 ± 0.011
CAAAAGTCGG | 1.02 ± 0.012
CAAAAGTCTT | 1.02 ± 0.037
CAAAATTAAA | 0.958 ± 0.044
CAAAATTGGG | 0.956 ± 0.013
CAAACAGGCA | 1.03 ± 0.041
CAAACAGTCG | 1.01 ± 0.042
CAAACTGTCA | 1.07 ± 0.06
CAAAGATAAT | 1.01 ± 0.039
CAAAGATGG | 0.947 ± 0.013
CAAAGCTGGG | 1.05 ± 0.05
CAAAGGGCAT | 1.02 ± 0.032
CAAAGGGGGT | 1 ± 0.016
CAAAGGTGCA | 1.09 ± 0.032
CAAAGGTTGG | 1 ± 0.038
CAAATAAGTC | 0.998 ± 0.013
CAAATACGGT | 1.25 ± 0.25
CAAATACTTG | 1.04 ± 0.019

Sequence | switch fluorescence ratio
CAAATAGGCC | 1.002 ± 0.0014
CAAATAGGGG | 0.971 ± 0.024
CAAATATGAG | 0.972 ± 0.033
CAAATGATGT | 1.01 ± 0.027
CAAATGCCCG | 0.934 ± 0.055
CAAATGGGCT | 0.975 ± 0.044
CAAATGGGG | 0.9589 ± 0.006
CAAATGGGGG | 0.985 ± 0.015
CAAATGGTTC | 0.9582 ± 0.0043
CAAATTAGGC | 1.06 ± 0.1
CAAATTGGAC | 1.03 ± 0.0071
CAAATTTTTT | 1.01 ± 0.02
CAACAAGGGA | 1.04 ± 0.018
CAACATGGGG | 0.9925 ± 0.0065
CAACCCATCT | 0.992 ± 0.042
CAACCGTGAG | 1.02 ± 0.017
CAACGGGGGA | 1 ± 0.032
CAACGGGTGC | 1.75 ± 0.21
CAACTATTTT | 1.002 ± 0.0083
CAACTTAGTC | 0.988 ± 0.068
CAAGAAGTGG | 0.993 ± 0.041
CAAGAGGGAG | 0.994 ± 0.018
CAAGCCATCA | 0.9994 ± 0.0092
CAAGCCGTGT | 1.02 ± 0.036
CAAGCGTTGT | 1.03 ± 0.036
